Measured values as given in patent publication US20200157194A1 (Regeneron, published 2020).

T1: recombinant human GREM1 (hGREM1-His; C-terminal 10His tagged, R&D, #5190-GR) (human, UniProt O60565 25-184, limits assumed)
T1 sequence: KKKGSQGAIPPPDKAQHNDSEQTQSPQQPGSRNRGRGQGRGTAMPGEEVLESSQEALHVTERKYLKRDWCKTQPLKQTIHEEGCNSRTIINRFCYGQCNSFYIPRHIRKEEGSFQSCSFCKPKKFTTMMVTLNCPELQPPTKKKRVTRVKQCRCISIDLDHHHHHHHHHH

T2: human GREM1 (hGREM1-His; SEQ ID NO: 595) (human, UniProt O60565 25-184)
T2 construct: also called biotin-hGREM1-His; recombinant human GREM1 protein
T2 sequence: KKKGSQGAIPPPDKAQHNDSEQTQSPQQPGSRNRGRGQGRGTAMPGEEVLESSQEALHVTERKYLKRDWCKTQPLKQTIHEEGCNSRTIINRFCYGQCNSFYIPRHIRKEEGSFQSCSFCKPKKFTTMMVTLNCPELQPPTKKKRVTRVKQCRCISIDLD


Columns and labels:
[1] = biological target: T1, recombinant human GREM1 (hGREM1-His; …); assay: cell-based or functional assay
[2] = biological target: T1, recombinant human GREM1 (hGREM1-His; …); assay: BLI Octet, mAb captured, 100 nM GREM1 without vs with 5 uM heparin;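 note: octet Red96 biolayer interferometry at 25 °C, antibodies captured on anti-human IgG Fc biosensors, association of GREM1 measured with versus without heparin in HEPES-buffered saline, pH 7.4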
[3] = biological target: T1, recombinant human GREM1 (hGREM1-His; …); assay: cell-based or functional assay; remark: listed apart in the source
[4] = biological target: T2, human GREM1 (hGREM1-His; SEQ ID NO: 595); assay: SPR, Biacore T200, 25 C, mAb captured, hGREM1-His injected;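 note: Heparin-supplemented HBS-EP+ used as running buffer, association and dissociation phases followed, Kd computed as koff divided by kon and half-life derived from koff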
[5] = biological target: T2, human GREM1 (hGREM1-His; SEQ ID NO: 595); assay: SPR, Biacore T200, 37 C, mAb captured, hGREM1-His injected;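 note: HBS-EP running buffer containing heparin, association and dissociation phases tracked, KD computed as koff over kon and half-life derived from koff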
Protocol: Kinetic experiments were carried out using HBS-EP+heparin [10 mM HEPES, 150 mM NaCl, 3 mM EDTA, 0.05% (v/v) surfactant P20, 10 μg/ml heparin sodium salt, pH 7.4] as both the running buffer and the sample buffer. […] Antigen-antibody association was monitored for 150 seconds while dissociation in buffer was monitored for 420 seconds. Kinetic analysis was performed using Scrubber software version 2.0a or Biacore T200 evaluation software v1.0 to determine kₐ and kd values. KD and t_{1/2} were then calculated from the experimentally determined kₐ and kd values as KD=kd/kₐ and t_{1/2}=In(2)/kd.

[6] = biological target: T1, recombinant human GREM1 (hGREM1-His; …); assay: BLI Octet, mAb captured, 100 nM GREM1 + 5 uM heparin;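 note: octet Red96 biolayer interferometry at 25 °C, antibodies captured on anti-human IgG Fc biosensors, pH 7.4 HEPES buffer with 0.1 mg/mL BSA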
Protocol: Binding measurements were conducted using an Octet Red96 label-free biomolecular interaction instrument (ForteBio). All experiments were performed at 25° C. using plate agitation at 1000 rpm. Solutions were made in an aqueous buffer containing 10 mM HEPES, 150 mM NaCl, 3 mM EDTA 0.05% P20, 0.1 mg/mL BSA and adjusted to pH of 7.4 (HBST buffer).
Anti-Human IgG Fc Capture biosensors (ForteBio) were separately loaded with 50 μg/mL solutions of 24 different anti-GREM1 antibodies for 60 seconds. Following a 30 second wash, duplicate biosensors for each antibody were submerged into wells containing either 100 nM GREM1 solutions or 100 nM GREM1 solutions containing 5 μM of heparin, measuring association for 300 seconds.

[7] = biological target: T2, human GREM1 (hGREM1-His; SEQ ID NO: 595); assay: competition ELISA, biotin-hGREM1-His (100 pM) binding to coated hBMP4
Protocol: Data were analyzed using a sigmoidal dose-response model within Prism™ software. […] The absorbance values of the wells containing the highest concentration for each antibody were used to determine the percent maximum blocking.

[8] = biological target: T1, recombinant human GREM1 (hGREM1-His; …); assay: BLI Octet, mAb captured, 100 nM GREM1;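 note: octet Red96 biolayer interferometry at 25 °C in pH 7.4 HEPES saline buffer, antibodies held on anti-human IgG Fc capture biosensors, then exposed to GREM1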

Binder | IC50 [M], inhibition of hGREM1-His, W-20-17/BRE-luc luciferase (100 pM hBMP4, 10 nM hGREM1-His) [1] | Reduction in Signal from Heparin at 30 sec [2] | Reduction in Signal from Heparin at 300 sec [2] | hGREM1-His Inhibition IC50, M; W-20-17 cell differentiation assay (alkaline phosphatase) [3] | Kd [4] | koff [4] | kon [4] | t1/2 [4] | Kd [5] | koff [5] | kon [5] | t1/2 [5] | Binding Signal with 30 sec Association [6] | Binding Signal with 300 sec Association [6] | % blocked at maximum Ab tested (20 nM) [7] | IC50 [7] | Binding Signal with 30 sec Association [8] | Binding Signal with 300 sec Association [8]
H4H6269P (antibody, human IgG4, V domains shown, H4H prefix = human IgG4 Fc) VH: QVQLQESGPGLVKPSQTLSLTCTVSGGSISSGGYYWTWIRQHPGKGLEWIGYIYYSGSTYYNPSLKSRVTMSVDTSKNQFSLKLSSVTAADTAVYYCARLLDFDYWGQGTLVTVSS VL: AIQMTQSPSSLSASVGDRVTITCRASQGIRNDLGWYQQKPGKAPKLLIYAASSLQSGVPSRFSGSGSGRDFTLTISSLQPEDFASYYCLQDHNYPLTFGGGTKVEIK |  | 0.01 nm | 0.08 nm |  | 0.625 nM | 6.32e-05 s⁻¹ | 101000 M⁻¹ s⁻¹ | 183 min | 1.98 nM | 0.000254 s⁻¹ | 128000 M⁻¹ s⁻¹ | 46 min | 0.14 nm | 0.52 nm | 73% | 0.026 nM | 0.15 nm | 0.6 nm
H4H2784N (antibody, human IgG4, V domains shown, H4H prefix = human IgG4 Fc) VH: QVQLVESGGGVVQPGRSLRLSCAASGFTFSSYGMHWVRQAPGKGLEWVTIIWHDGSNKYYADSVKGRFTISRDNSKNTLYLQMNSVRAEDTAVYYCARDEDFFDYWGQGTLVTVSS VL: not shown | 9.5e-10 M | 0.18 nm | 0.06 nm | 24 nM | 17 nM | 0.00105 s⁻¹ | 61800 M⁻¹ s⁻¹ | 11 min | 13.8 nM | 0.00197 s⁻¹ | 142000 M⁻¹ s⁻¹ | 6 min | 0.06 nm | 0.46 nm | 59% | 0.45 nM | 0.24 nm | 0.52 nm
H2bM2783N (antibody, mouse IgG2, V domains shown, H2M prefix = mouse IgG2 Fc (here H2bM); also called H2M2783N) VH: EVQLLESGGGLVQPGGSLRLSCAASGFTFSSYVMNWVRQAPGKGLEWVSAISGSGGSTYYADSVKGRSTISRDNSKNTLYLQMNSLRAEDTAIYYCAKGDIAAIVFDAFDIWGQGTVVTVSS VL: DIQMTQSPSSLSASVGDRVTITCQASQDISSCLNWYQHKPGKAPKLLIYDASYLETGVPSRFSGSGSGTDFTFTISSLQPEDIATYYCQQYDNLPYTFGQGTKLEIK |  |  |  |  | 7.4 nM | 0.0015 s⁻¹ | 202000 M⁻¹ s⁻¹ | 7.7 min |  |  |  |  |  |  |  |  |  | 
H4H2783N2 (antibody, human IgG4, V domains shown, H4H prefix = human IgG4 Fc) VH: EVQLLESGGGLVQPGGSLRLSCAASGFTFSSYVMNWVRQAPGKGLEWVSAISGSGGSTYYADSVKGRSTISRDNSKNTLYLQMNSLRAEDTAIYYCAKGDIAAIVFDAFDIWGQGTVVTVSS VL: DIQMTQSPSSLSASVGDRVTITCQASQDISSALNWYQHKPGKAPKLLIYDASYLETGVPSRFSGSGSGTDFTFTISSLQPEDIATYYCQQYDNLPYTFGQGTKLEIK | 1.3e-09 M | 0.28 nm | 0.18 nm | 5.6 nM | 15.7 nM | 0.000476 s⁻¹ | 30400 M⁻¹ s⁻¹ | 24 min | 61.1 nM | 0.000849 s⁻¹ | 13900 M⁻¹ s⁻¹ | 14 min | 0.01 nm | 0.29 nm | 76% | < 0.025 nM | 0.29 nm | 0.47 nm

More lines, in order of falling Kd [4], values ahead:

IC50 [M], inhibition of hGREM1-His, W-20-17/BRE-luc luciferase (100 pM hBMP4, 10 nM hGREM1-His) [1] | Reduction in Signal from Heparin at 30 sec [2] | Reduction in Signal from Heparin at 300 sec [2] | hGREM1-His Inhibition IC50, M; W-20-17 cell differentiation assay (alkaline phosphatase) [3] | Kd [4] | koff [4] | kon [4] | t1/2 [4] | Kd [5] | koff [5] | kon [5] | t1/2 [5] | Binding Signal with 30 sec Association [6] | Binding Signal with 300 sec Association [6] | % blocked at maximum Ab tested (20 nM) [7] | IC50 [7] | Binding Signal with 30 sec Association [8] | Binding Signal with 300 sec Association [8] | Binder
 | 0 nm | 0 nm |  | 12.4 nM | 0.00088 s⁻¹ | 71200 M⁻¹ s⁻¹ | 13 min | 28 nM | 0.00161 s⁻¹ | 57400 M⁻¹ s⁻¹ | 7 min | 0.13 nm | 0.58 nm | 69% | 0.1 nM | 0.13 nm | 0.58 nm | H4H2780N (antibody, human IgG4, V domains shown, H4H prefix = human IgG4 Fc) VH: EVQLVESGGGLVKPGGSLRLSCAASGFTFSTYSMNWVRQAPGKGLEWVSSISSGSSYIYYTDSVKGRFTISRDNAKNSLYLQMNSLRAEDTAVYYCARFGSYYYFGFDVWGQGTTVTVSS VL: DIQMTQSPSSLSASVGDRVTITCRASQGISNYLAWYQQKPGKVPKLLIFSASTLQSGVPSRFSGSGSGPDFTLTVSSLQPEDVATYYCQKYNSAPFAFGPGTKVDIK
1.2e-09 M | 0.15 nm | 0.02 nm | 5.4 nM | 1.89 nM | 0.000118 s⁻¹ | 62700 M⁻¹ s⁻¹ | 98 min | 4.06 nM | 0.000422 s⁻¹ | 104000 M⁻¹ s⁻¹ | 27 min | 0.05 nm | 0.44 nm | 86% | < 0.025 nM | 0.2 nm | 0.46 nm | H4H2889N (antibody, human IgG4, V domains shown, H4H prefix = human IgG4 Fc) VH: QVQLQESGPGLVKPSETLSLTCTVSGGSISNSYWSWIRQPPGKGLEWIGYIYYSGNTNYNPSLKSRVTISVDTSKNQFSLKLSSVTAADTAVYYCARVNDYSNYDSYYYGMDVWGQGTTVTVSS VL: AIQMTQSPSSLSASVGDRVTITCRASQGIRNDLGWYQQKPGKAPKLLIYAASSLQSGVPSRFSGSGSGTDFTLTISSLQPEDFATYYCLQDYNYPPTFGQGTKVDIK
9.5e-10 M | 0.05 nm | 0 nm | 4.4 nM | 1.22 nM | 0.000173 s⁻¹ | 142000 M⁻¹ s⁻¹ | 67 min | 2.35 nM | 0.0004 s⁻¹ | 171000 M⁻¹ s⁻¹ | 29 min | 0.15 nm | 0.49 nm | 82% | 0.17 nM | 0.2 nm | 0.49 nm | H4H2892N (antibody, human IgG4, V domains shown, H4H prefix = human IgG4 Fc) VH: QVQLVESGGGVVQPGRSLRLSCAASGFTFSSYGIHWVRQAPGKGLEWVAILWYDGSNKYYADSVKGRFTISRDNSKTTLYLQMNSLRAEDTAVYYCARENYNDLNFDLWGRGTLVTVSS VL: DIQLTQSPSFLSASVGDRVTITCWASQGISSYLAWYQHKPGKAPKLLIYAASTLQSGVPSRFSGSGSGIEFTLTISSLQPEDFATYYCQQLKSYPPWTFGQGTKVEIR
